Measurements reported in publication PMC10372695 (Proceedings of the National Academy of Sciences of the …, 2023).
Values joined by “and” are separate entries in the source; they are usually repeats but may differ in a detail not shown here. Equal entries are not always repeated. Where two headings read alike, the source gives them in different places.

Legend:
[1] = molecular target: the molecule itself; experiment: single-molecule fluorescence microscopy with optical tweezers
[2] = molecular target: the molecule itself; experiment: as above; remark: listed apart in the source

B1: C-terminal GFP-tagged SV40 LT (natural protein)
chain: MDKVLNREESLQLMDLLGLERSAWGNIPLMRKAYLKKCKEFHPDKGGDEEKMKKMNTLYKKMEDGVKYAHQPDFGGFWDATEIPTYGTDEWEQWWNAFNEENLFCSEEMPSSDDEATADSQHSTPPKKKRKVEDPKDFPSELLSFLSHAVFSNRTLACFAIYTTKEKAALLYKKIMEKYSVTFISRHNSYNHNILFFLTPHRHRVSAINNYAQKLCTFSFLICKGVNKEYLMYSALTRDPFSVIEESLPGGLKEHDFNPEEAEETKQVSWKLVTEYAMETKCDDVLLLLGMYLEFQYSFEMCLKCIKKEQPSHYKYHEKHYANAAIFADSKNQKTICQQAVDTVLAKKRVDSLQLTREQMLTNRFNDLLDRMDIMFGSTGSADIEEWMAGVAWLHCLLPKMDSVVYDFLKCMVYNIPKKRYWLFKGPIDSGKTTLAAALLELCGGKALNVNLPLDRLNFELGVAIDQFLVVFEDVKGTGGESRDLPSGQGINNLDNLRDYLDGSVKVNLEKKHLNKRTQIFPPGIVTMNEYSVPKTLQARFVKQIDFRPKDYLKHCLERSEFLLEKRIIQSGIALLLMLIWYRPVAEFAQSIQSRIVEWKERLDKEFSLSVYQKMKFNVAMGIGVLDWLRNSDDDDEDSQENADKNEDGGEKNMEDSGHETGIDSQSQGSFQAPQSSQSVHDHNQPYHICRGFTCFKKPPTPPPEPET
[1]
  stoichiometry N: 3 and 4 and 5
[2]
  stoichiometry N: 6 and 12
